Results from US20130130315A1 (ADVANCECOR, published 2013).

Biological target: T1, CD133 protein (UniProt O43490 20-865, limits assumed)
T1 construct: whole, on cells; Presented on AC133/293 cells: paraformaldehyde-fixed in the cellular ELISA, unfixed in the phage FACS; also called CD133 antigen; AC133
T1 sequence (looked up): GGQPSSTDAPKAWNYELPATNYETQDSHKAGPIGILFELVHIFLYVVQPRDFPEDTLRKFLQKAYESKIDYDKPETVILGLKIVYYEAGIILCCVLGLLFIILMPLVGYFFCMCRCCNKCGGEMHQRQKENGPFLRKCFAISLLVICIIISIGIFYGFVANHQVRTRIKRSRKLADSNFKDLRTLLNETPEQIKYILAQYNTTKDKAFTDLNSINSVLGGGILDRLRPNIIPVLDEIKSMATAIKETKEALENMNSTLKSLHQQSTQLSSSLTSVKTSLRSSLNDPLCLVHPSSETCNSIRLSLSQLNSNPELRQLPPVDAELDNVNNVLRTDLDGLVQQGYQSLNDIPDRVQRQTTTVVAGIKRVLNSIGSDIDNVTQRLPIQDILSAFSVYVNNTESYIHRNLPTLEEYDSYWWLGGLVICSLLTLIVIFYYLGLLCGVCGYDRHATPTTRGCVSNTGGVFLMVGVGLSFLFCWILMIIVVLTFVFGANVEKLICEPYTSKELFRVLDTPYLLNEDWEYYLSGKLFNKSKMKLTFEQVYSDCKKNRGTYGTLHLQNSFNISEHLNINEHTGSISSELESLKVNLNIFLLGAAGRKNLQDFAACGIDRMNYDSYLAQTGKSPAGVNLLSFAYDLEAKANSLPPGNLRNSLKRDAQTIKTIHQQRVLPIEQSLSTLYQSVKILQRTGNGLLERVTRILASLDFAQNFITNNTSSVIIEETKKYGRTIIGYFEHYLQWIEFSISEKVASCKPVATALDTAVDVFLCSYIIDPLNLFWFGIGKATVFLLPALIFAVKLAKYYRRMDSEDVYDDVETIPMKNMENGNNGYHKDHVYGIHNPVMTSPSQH
Assay: cellular ELISA, threefold dilution series on fixed AC133/293 cells
Protocol: 1×10⁵ cells in 0.2 ml of medium were added to each well and incubated o/n at 37° C., 5% CO₂ to allow cells to attach to the surface of the plate. The next day wells were washed once with 0.2 ml PBS and fixed with 0.1 ml 2% Paraformaldehyde (in PBS, pH 7.4) for 10-20 min at RT. Wells were washed with PBS-T (PBS+0.1% Tween-20) and blocked with either 1× RotiBlock or 3% milk in PBS-T for 1 hour at RT. After washing with PBS-T, serial dilutions of the respective antibody were added to the wells and incubated at RT for at least one hour while shaking. After washing with PBS-T, 0.1 ml of StrepMAb-Classic-HRP (1:10000 in PBS-T, lba BioTagnology, Göttingen, Germany) or of horseradish peroxidase linked anti-mouse IgG (1:10000 in PBS-T, Dianova, Hamburg, Germany) was added and incubated at RT for one hour with shaking. After washing with PBS-T, 0.1 ml of 1-Step Ultra TMB-ELISA substrate (Thermo Scientific, Braunschweig, Germany) was added and incubated until an adequate blue staining developed. To stop the reaction 0.1 ml 1 M H₂SO₄ was added to each well and absorbance at 450 nm and 595 nm as a reference was measured with an infinite F200 plate reader (TECAN, Männedorf, Switzerland). […] Signals were detected using an anti-mouse IgG-HRP antibody (1:10000 in PBS-T, Dianova, Hamburg, Germany). […]

B1: single chain antibody scFv-hl (scFv, not shown: large carriers)
scFv: EVQLQQSGPDLMKPGASVKISCKASGYSFTNYYVHWVKQSLDKSLEWIGYVDPFNGDFNYNQKFKDKATLTVDKSSSTAYMHLSSLTSEDSAVYYCARGGLDWYDTSYWYFDVWGAGTAVTVSSGGGGSGGGGSGGGGSDILMTQSPKSMSMSLGERVTLSCKASENVDTYVSWYQQKPEQSPKVLIYGASNRYTGVPDRFTGSGSATDFSLTISNVQAEDLADYHCGQSYRYPLTFGAGTKLELK
notes: Orientation heavy-light; Produced and purified solely from E. coli
  binding result: no binding
